For test [1], the target named is T1, long IGF-II (IGF-II precursor) (human, UniProt P01344 25-180).
T1 construct: Expressed in E. coli as His-tagged long IGF-II; also called long His6-IGF-II; His-tagged long IGF-II; not shown: His6 tag from the E. coli expression vector (pRSET)
In words: ELISA, Fab on immobilized long IGF-II. Background: ELISA stands for enzyme-linked immunosorbent assay.

Another test has as its target T2, IGF-I (UniProt P05019 49-118).
T2 construct: also called insulin-like growth factor I
In words: ELISA, antigens immobilized on the plate, single Fab concentration not shown, OD405.

The next test has as its target T3, mature IGF-II (human, UniProt P01344 25-91).
T3 construct: also called mature form of IGF-II
In words: ELISA, 50 ng mature IGF-II immobilized, OD405.

The target in test [2] is T1, long IGF-II (IGF-II precursor). Nature of the test: ELISA, 50 ng long (precursor) IGF-II immobilized, OD405.
Method: (§1) Binding of the antibodies was measured by ELISA with 50 ng of either mature or precursor IGF-II immobilized on plates.
Test [3] shares this target. Nature of the test: Biacore SPR, Fab on long IGF-II. In general terms: In SPR one partner is held on a chip, and binding of the other changes the refractive index at the surface.
Method: (§2) The binding of the Fabs was measured by using ELISA and Biacore surface plasmon resonance technology. […] Interactions between various Fabs and IGF-II were analyzed by surface plasmon resonance technology using a BIACORE 1000 instrument (Biacore, Pharmacia, Piscataway, N.J.). IGF-II was covalently immobilized onto a sensor chip (CM5) using carbodiimide coupling chemistry. A control reference surface was prepared for nonspecific binding and refractive index changes. For analysis of the kinetics of interactions, varying concentrations of Fabs were injected at flow rate of 30 μl/min using running buffer containing 150 mM NaCl, 3 mM EDTA, and 0.005% P-20 (pH 7.4). The association and dissociation phase data were fitted simultaneously to a 1:1 Langumir global model by using the nonlinear data analysis program BIAevaluation 3.2. All the experiments were performed at 25° C.
(§3) Biacore analysis was used to examine their binding affinities in more detail.
Test [4] has the same target. In words: Biacore 1000 SPR, IGF-II immobilized on CM5 chip, Fab injected, 1:1 Langmuir fit, 25° C.
Method: as §2, §3
Another test addresses T4, BSA (Bos taurus, UniProt P02769).
T4 construct: also called bovine serum albumin
In words: ELISA, antigens immobilized on the plate, single Fab concentration not shown, OD405.

The target in test [5] is T1, long IGF-II (IGF-II precursor). Nature of the test: ELISA, long IGF-II immobilized at 50 ng/well, bound Fab detected with anti-FLAG-HRP, OD405.

T4 sequence (P02769 25-607 limits assumed): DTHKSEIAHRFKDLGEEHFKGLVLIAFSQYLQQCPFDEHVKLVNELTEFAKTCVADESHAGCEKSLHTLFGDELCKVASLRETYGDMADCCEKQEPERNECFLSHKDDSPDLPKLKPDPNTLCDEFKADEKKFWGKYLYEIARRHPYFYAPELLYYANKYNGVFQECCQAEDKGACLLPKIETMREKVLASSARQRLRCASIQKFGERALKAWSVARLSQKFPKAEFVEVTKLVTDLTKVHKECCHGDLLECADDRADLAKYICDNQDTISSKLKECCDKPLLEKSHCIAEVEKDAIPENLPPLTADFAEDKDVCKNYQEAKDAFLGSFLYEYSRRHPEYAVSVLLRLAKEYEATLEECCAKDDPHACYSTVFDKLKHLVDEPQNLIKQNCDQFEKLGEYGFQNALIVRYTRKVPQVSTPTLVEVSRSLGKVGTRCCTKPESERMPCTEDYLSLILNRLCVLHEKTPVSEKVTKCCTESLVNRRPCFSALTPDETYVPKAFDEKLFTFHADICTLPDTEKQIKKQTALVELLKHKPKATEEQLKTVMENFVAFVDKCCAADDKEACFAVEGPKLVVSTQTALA
Method for mature IGF-II: as §1

B1: Fab m616 (Fab, V domains shown)
VH: SQVQVLVKPSQTLSLTCAISGDSVSSNSAAWNWIRQSPSRGLEWLGRTYYRSKWYNDYAVSVKSRITINPDTSKNQFSLQLNSVTPEDTAVYYCAREKGIGRGITGTTIPYNWFDPWGQGTLVTVSS
VL: SSYEITQPPSVSVTPGQTARITCSGDALPKHFAYWYQQKPGQAPVLIIYKDTERPSGIPERFSGSNSGNTATLTISRVEAGDEADYYCQVWDSSSGWVFGGGTKLTVQG
notes: Soluble Fab from E. coli periplasm; also called clone M616
A word on the EC50: it is the concentration at which the effect is half-maximal. Read a low EC50 as greater potency. On to B1, for which the EC50 in test [1] is approximately 4 nM. Also, the binding result in the test with IGF-I is recorded as “no binding”.

B2: IgG1 m610 (antibody, V domains shown)
VH: QVQLVQSGAEVKKPGASVKVSCKASGYTFTSYYMHWVRQAPGQGLEWMGIINPSGGSTSYAQKFQGRVTMTRDTSTSTVYMELSRLRSDDTAVYYCARDVQWLAYGMDVWGQGTTVTVSS
VL: not shown
notes: Whole IgG made from the Fab in 293 Free Style cells; also called IgG m610; IgG M610; not shown: rest of the IgG1 heavy chain constant region supplied by vector pDR12
By EC50 (read off the curve) is commonly meant the concentration giving half of the maximal effect. With B2, the “EC50 (read off the curve)” value was approximately 0.5 nM with mature IGF-II and approximately 0.4 nM in test [2].

B3: Fab m610 (Fab, V domains shown)
VH: QVQLVQSGAEVKKPGASVKVSCKASGYTFTSYYMHWVRQAPGQGLEWMGIINPSGGSTSYAQKFQGRVTMTRDTSTSTVYMELSRLRSDDTAVYYCARDVQWLAYGMDVWGQGTTVTVSS
VL: not shown
notes: also called clone M610
Broadly, the Kd is the equilibrium constant for the complex coming apart. Broadly, the koff is a measure of how fast the partners let go of each other. The low end stands for a long-lived complex, the high end for a short-lived complex. One may read the kon as the second-order rate constant of association. Lower therefore signals slower complex formation. Turning to B3, in test [3], the Ka was 1.09e+09 M⁻¹, binding was characterised by a dissociation constant (Kd) of 0.918 nM, the koff amounted to 0.000262 s⁻¹ and the on-rate (kon) is 286000 M⁻¹ s⁻¹. This molecule displayed a concentration for a half-maximal effect (EC50) in test [1] of approximately 4 nM. The binding result with IGF-I is given as “no binding”. In test [4], the Kd amounted to 0.9 nM, the dissociation rate constant (koff) was found to be 0.00026 s⁻¹ and the kon was determined as 290000 M⁻¹ s⁻¹.

B4: IgG1 m606 (antibody, V domains shown)
VH: QVQLVESGAEVKKPGASVKVSCKASGYTFTSYYMHWVRQAPGQGLEWMGIINPSGGSTSYAQKFQGRVTMTRDTSTSTVYMELSSLRSEDTAVYYCARDRSIAAMGWFDHWGQGTLVTVSS
VL: DIQMTQSPSSVSASVGDRVTITCRASQGISSWLVWYQQKPGKAPKLLIYAASRLQSGVPSRFSGSGSGTLFTLIINNLQPEDFATYYCQQSNSVPLTFGGGTKVEIKR
notes: Whole IgG made from the Fab in 293 Free Style cells; also called IgG m606; m606 IgG; not shown: rest of the IgG1 heavy chain constant region supplied by vector pDR12
Regarding B4, the “EC50 (read off the curve)” value with mature IGF-II was approximately 0.4 nM.

B5: Fab m606 (Fab, V domains shown)
VH: QVQLVESGAEVKKPGASVKVSCKASGYTFTSYYMHWVRQAPGQGLEWMGIINPSGGSTSYAQKFQGRVTMTRDTSTSTVYMELSSLRSEDTAVYYCARDRSIAAMGWFDHWGQGTLVTVSS
VL: DIQMTQSPSSVSASVGDRVTITCRASQGISSWLVWYQQKPGKAPKLLIYAASRLQSGVPSRFSGSGSGTLFTLIINNLQPEDFATYYCQQSNSVPLTFGGGTKVEIKR
notes: also called clone M606
In test [3], B5 yielded a Ka of 1.41e+09 M⁻¹, a Kd of 0.711 nM and a kon of 351000 M⁻¹ s⁻¹. Further, the concentration for a half-maximal effect (EC50) in test [1] was approximately 4 nM. Further, the binding result with BSA is recorded as “no binding”. In addition, the binding result with IGF-I is listed as “no binding”. In addition, the concentration for a half-maximal effect (EC50 (read off the curve)) in test [5] is approximately 6 nM. For the same molecule, in test [4], the Kd came out at 0.7 nM, the koff came out at 0.00025 s⁻¹ and the kon was found to be 350000 M⁻¹ s⁻¹.

The values above are taken from patent publication US20080193465A1 (US Dept. of Health and Human Services, published 2008).
